Results on one substance are retold here after US20140242694A1.

The target in this assay is CD150 (signaling lymphocyte activation molecule, SLAM) on EBV-infected human B cells, Raji cells or IM-9 cells (human) (UniProt Q13291). The assay is described as follows: cell-based or functional assay.
Sequence of UniProt Q13291 (Q13291 21-335): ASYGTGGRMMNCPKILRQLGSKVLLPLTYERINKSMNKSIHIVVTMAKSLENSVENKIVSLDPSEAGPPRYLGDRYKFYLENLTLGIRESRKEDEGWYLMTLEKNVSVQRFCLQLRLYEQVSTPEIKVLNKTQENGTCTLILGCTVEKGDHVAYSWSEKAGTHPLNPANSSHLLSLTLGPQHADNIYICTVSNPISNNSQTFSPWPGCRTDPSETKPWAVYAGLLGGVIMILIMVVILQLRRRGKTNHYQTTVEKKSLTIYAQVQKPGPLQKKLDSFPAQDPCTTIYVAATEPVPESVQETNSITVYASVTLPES

On to “anti-CD150 mAb (clone IPO-3, Affinity Bioreagents) (antibody)”, for which the IL-1A production, mRNA level (real-time RT-PCR) came out at 55 fold and the IL-1A production, protein level (ELISA) stood at 23 fold.
